Where two headings read alike, the source gives them in different places.
What was measured:
T24 cells = assay: Phosphotyrosine immunoblot, T24 cells; type: cell-based, human
Experimental: Cell culture, preparation and stimulation—T24 cells were maintained in RPMI 1640 medium containing 5% fetal bovine serum, and MDA-MB-435 and 293 cells were maintained in Dulbecco's modified Eagle's medium with 10% serum at 37° C. in 5% CO2. Cells were washed with phosphate-buffered saline (PBS) and starved in the appropriate serum-free medium for 6 h at 37° C. Cells were detached by brief treatment with 0.05% trypsin/0.02% EDTA in PBS and collected by centrifugation, resuspended in soybean trypsin inhibitor (1 mg/ml in serum-free medium), and washed in 2% bovine serum albumin/serum-free medium. Cells were maintained in suspension for 1 h in 2% bovine serum albumin/serum-free medium at 37° C. with end-over-end agitation. Quiescent cells (3×10^6/ml) were treated with disintegrins or other reagents while in suspension, or were allowed to adhere to Matrigel (Becton Dickinson, Bedford, Mass.) diluted 1:100 with serum-free medium during treatment.
Lysate preparation and immunoprecipitation—Suspended and adherent cells were washed twice with cold PBS and lysed in cold lysis buffer (50 mM Tris, pH 8.0, 150 mM NaCl, 1% Nonidet P-40, 0.5% deoxycholate, 0.1% SDS, protease inhibitor cocktail, 1 mM sodium pyrophosphate, 1 mM sodium orthovanadate, 50 mM sodium fluoride). After 10-15 min incubation on ice, insoluble material was removed by centrifugation at 14,000 RPM in a microcentrifuge for 15 min. Supernatants were collected and total protein concentrations standardized by the BCA protein assay (Pierce, Rockford, Ill.). Immunoprecipitation was carried out by incubating whole cell lysates (200 μg total protein) with 1.25 μg anti-FAK or anti-CAS mAb 4-6 h at 4° C. followed by 20 μl protein G-agarose overnight at 4° C. Immunoprecipitates were washed 4 times in lysis buffer without inhibitors and dissociated by adding SDS-PAGE sample buffer and boiling 5 min. Whole cell lysates (30 μg total protein) or immunoprecipitates were resolved by 7.5% SDS-polyacrylamide gel electrophoresis and transferred to nitrocellulose membranes. […]

MDA-MB-435 cells [1] = assay: Growth of MDA-MB-435 cells in vitro on Matrigel-coated plates; type: cell-based, human
Experimental: MDA-MB-435 cells (0.3×10^6/ml) were added to each well of a 6-well cell culture plates coated with 1/100 dilution of Matrigel . Cells were then treated with CN at various concentration. Growth curves of MDA-MB-435 cells in vitro without CN (circles), and with CN at 100 nM (triangles), and 500 nM (diamonds) are illustrated. Six-well cell culture plates coated with Matrigel (1/100 dilute) were seeded with 3 ml of MDA-MB-435 cell suspension (0.3×10^6/ml). Cell density was determined every 24 hours.

[2] = test system: human platelet rich plasma; assay: ADP-induced platelet aggregation in human platelet rich plasma; type: cell-based
Experimental: Column fractions obtained during purification were assayed for activity using fresh human platelet rich plasma (PRP) prepared from blood obtained from human volunteers who had had no medication for at least two weeks. Blood (36 ml) was drawn into 4 ml of 0.1 M citrate and centrifuged at 150×g for 20 minutes. The supernatant, PRP, was removed and the remaining blood was centrifuged at 10,000 RPM to obtain platelet poor plasma (PPP). Platelet counts were adjusted to 250,000 platelets/μl using a Coulter counter. A Helena four channel aggregometer was used to monitor platelet aggregation. Inhibition of ADP-induced platelet aggregation was monitored at 37° C. by adding venom fractions one minute prior to the addition of ADP (10-20 μM final concentration). […] Rabbit and canine PRP was prepared by the same procedure and used in the studies described below.
CN inhibited ADP-induced platelet aggregation in human, canine, and rabbit PRPs (FIG. 6). Empty circles represent human platelet rich plasma, solid circles represent canine PRP, and empty triangles represent rabbit PRP. Varying concentration of CN were preincubated for one minute with PRP prior to the addition of ADP.

MDA-MB-435 cells [3] = assay: Adhesion of MDA-MB-435 cells to immobilized ECM proteins; type: cell-based, human
Experimental: The effect of CN on binding of highly metastatic human breast cancer cells, MDA-MB-435 cell line, to ECM proteins was examined. Human fibronectin and vitronectin were immobilized in the wells of 96-well microtiter plates. […] In a variation of the above experiments, CN was immobilized. […] Referring to FIGS. 12 and 13, varying concentrations of GRGDSP (FIG. 12) or EDTA (FIG. 13) were used to inhibit binding of human mammary carcinoma cells to immobilized CN. CN was at 0.1 μg/well. The vertical line at each data point indicates the y-axis error bar. All experiments were conducted as three sets of triplicates for each data point.

B1: contortrostatin (protein)
chain: DAPANPCCDAATCKLTTGSQCADGLCCDQCKFMKEGTVCRRARGDDLDDYCNGISAGCPRNPFHA
For B1, the “tyrosine phosphorylation in cells adherent to Matrigel” value (T24 cells) was “significant additional increase”, the “tyrosine phosphorylation at high concentration” value (T24 cells; 1000 nM) was “reduced levels of tyrosine phosphorylation” and the “tyrosine phosphorylation of 120-140 kDa proteins” value (T24 cells; suspended cells) was “also observed”. For the same molecule, the “cytotoxicity during in vitro culture” value (MDA-MB-435 cells [1]) was “no direct cytotoxicity”, the “proliferation of MDA-MB-435 cells” value (MDA-MB-435 cells [1]; CN at 100 nM and 500 nM) was “proliferate equally well as control cells” and the “IC50 of ADP-induced human platelet aggregation” value ([2]; 10 μM ADP, preincubated one minute) was 0.73 µg/mL. The “platelet aggregation inhibitory activity after reduction of the disulfide bonds” value ([2]; even at concentrations ten times the IC50) was “completely eliminated platelet aggregation inhibitory activity”, the “effect on adhesion to human or rat type I collagen” value (MDA-MB-435 cells [3]) was “minimal effect” and the IC50 (MDA-MB-435 cells [3]; immobilized human fibronectin, read-out: IC50 for adhesion to fibronectin) was 18 nM. For the same molecule, the IC50 (MDA-MB-435 cells [3]; immobilized human vitronectin, read-out: IC50 for adhesion to vitronectin) was 1.5 nM.

Reference: patent publication US6710030B1, “Contortrostain (CN) and methods for its use in preventing metastasis and other conditions” (University of Southern California, priority 1993, dated 2004)
